Results published in ChEMBL document CHEMBL1140664, “Asymmetrical ligand binding by abscisic acid 8'-hydroxylase” (Bioorg Med Chem, 2007).

Substrate: CC1=CC(=O)CC(C)(C)[C@@]1(O)/C=C/C(C)=C\C(=O)O
Assay: Activity of Arabidopsis thaliana recombinant CYP707A3

B1: Abscisic acid 8'-hydroxylase 3 (Arabidopsis thaliana) (protein)
chain: MDFSGLFLTLSAAALFLCLLRFIAGVRRSSSTKLPLPPGTMGYPYVGETFQLYSQDPNVFFAAKQRRYGSVFKTHVLGCPCVMISSPEAAKFVLVTKSHLFKPTFPASKERMLGKQAIFFHQGDYHSKLRKLVLRAFMPDAIRNMVPHIESIAQESLNSWDGTQLNTYQEMKTYTFNVALISILGKDEVYYREDLKRCYYILEKGYNSMPINLPGTLFHKAMKARKELAQILANILSKRRQNPSSHTDLLGSFMEDKAGLTDEQIADNIIGVIFAARDTTASVLTWILKYLADNPTVLEAVTEEQMAIRKDKKEGESLTWEDTKKMPLTYRVIQETLRAATILSFTFREAVEDVEYEGYLIPKGWKVLPLFRNIHHNADIFSDPGKFDPSRFEVAPKPNTFMPFGSGIHSCPGNELAKLEISVLIHHLTTKYRWSIVGPSDGIQYGPFALPQNGLPIALERKP
Km: 0.71 µM
